target: T1, PUF4 RNA-binding domain (Saccharomyces cerevisiae, UniProt P25339 537-888); test: Mg; RNA-MaP; 20 mM Na-HEPES pH 7.4, 30 mM KOAc, 0.75 mM MgCl2, 0.1% Tween-20, 5% glycerol, 0.1 mg/mL BSA, 2 mM DTT; 25 C; 0.0125-409.6 nM protein; settings: tags: N-His6-TEV cleaved; C-SNAP kept, Cy3B-labelled; label: tethered on chip by stalled RNA polymerase
T1 sequence: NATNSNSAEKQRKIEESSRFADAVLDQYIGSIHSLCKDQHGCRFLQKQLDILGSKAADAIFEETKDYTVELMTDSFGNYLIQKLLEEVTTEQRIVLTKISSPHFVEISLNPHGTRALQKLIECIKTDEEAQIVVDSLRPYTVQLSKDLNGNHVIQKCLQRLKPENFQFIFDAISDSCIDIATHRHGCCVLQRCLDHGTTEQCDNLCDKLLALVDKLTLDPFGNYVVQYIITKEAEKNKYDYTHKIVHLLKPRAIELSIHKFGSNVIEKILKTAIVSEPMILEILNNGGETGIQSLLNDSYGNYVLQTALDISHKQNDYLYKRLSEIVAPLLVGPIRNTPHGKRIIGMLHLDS

Binder	Kd [nM]
UCUCUUUGUACCCUCUCUCUU (ssRNA) [Ic_S1_P4E.1_K4.1_C4.1_H4.1_A4.1_[T5C]_[A6C]_[T7C]_F4.1_[A9C]_T4.1]	41.9
UCUCUUUGUACGUACUCUCUU (ssRNA) [Ic_S1_P4E.1_K4.1_C4.1_H4.1_A4.1_[T5C]_[A6G]_F4.1_[T8A]_[A9C]_T4.1]	1560
UCUCUUUGUACGUCUUCUCUU (ssRNA) [Ic_S1_P4E.1_K4.1_C4.1_H4.1_A4.1_[T5C]_[A6G]_F4.1_[T8C]_[A9T]_T4.1]	1520
UCUCUUUGUACCGCUUCUCUU (ssRNA) [Ic_S1_P4E.1_K4.1_C4.1_H4.1_A4.1_[T5C]_[A6C]_[T7G]_F4.1_[T8C]_[A9T]_T4.1]	741
UCUCUUUGUACGAACUCUCUU (ssRNA) [Ic_S1_P4E.1_K4.1_C4.1_H4.1_A4.1_[T5C]_[A6G]_[T7A]_F4.1_[T8A]_[A9C]_T4.1]	985
UCUCUUAGUAUACAUCUCUU (ssRNA) [Ib_S1_P3E.1_K3.1_C3.1_H3.1_[T1A]_A3.1_F3.1_[T7C]_T3.1]	> 2300
UCUCUUUGUACGCGUUCUCUU (ssRNA) [Ic_S1_P4E.1_K4.1_C4.1_H4.1_A4.1_[T5C]_[A6G]_[T7C]_F4.1_[T8G]_[A9T]_T4.1]	1440
UCUCUUUGUACGCUUUCUCUU (ssRNA) [Ic_S1_P4E.1_K4.1_C4.1_H4.1_A4.1_[T5C]_[A6G]_[T7C]_F4.1_[A9T]_T4.1]	51
UCUCUUUGUACCGGCUCUCUU (ssRNA) [Ic_S1_P4E.1_K4.1_C4.1_H4.1_A4.1_[T5C]_[A6C]_[T7G]_F4.1_[T8G]_[A9C]_T4.1]	> 2300
UCUCUUUGUACGAUGUCUCUU (ssRNA) [Ic_S1_P4E.1_K4.1_C4.1_H4.1_A4.1_[T5C]_[A6G]_[T7A]_F4.1_[A9G]_T4.1]	23.8
UCUCUUUGUACGUUCUCUCUU (ssRNA) [Ic_S1_P4E.1_K4.1_C4.1_H4.1_A4.1_[T5C]_[A6G]_F4.1_[A9C]_T4.1]	29.9
UCUCUUUGUACGCGAUCUCUU (ssRNA) [Ic_S1_P4E.1_K4.1_C4.1_H4.1_A4.1_[T5C]_[A6G]_[T7C]_F4.1_[T8G]_T4.1]	727
UCUCUUUGUACGUCAUCUCUU (ssRNA) [Ic_S1_P4E.1_K4.1_C4.1_H4.1_A4.1_[T5C]_[A6G]_F4.1_[T8C]_T4.1]	118
UCUCUUUGUACGCGCUCUCUU (ssRNA) [Ic_S1_P4E.1_K4.1_C4.1_H4.1_A4.1_[T5C]_[A6G]_[T7C]_F4.1_[T8G]_[A9C]_T4.1]	1130
UCUCUUUGUACGCCUUCUCUU (ssRNA) [Ic_S1_P4E.1_K4.1_C4.1_H4.1_A4.1_[T5C]_[A6G]_[T7C]_F4.1_[T8C]_[A9T]_T4.1]	777
UCUCUUUGUACCCCUUCUCUU (ssRNA) [Ic_S1_P4E.1_K4.1_C4.1_H4.1_A4.1_[T5C]_[A6C]_[T7C]_F4.1_[T8C]_[A9T]_T4.1]	808
UCUCUUUGUACCGCGUCUCUU (ssRNA) [Ic_S1_P4E.1_K4.1_C4.1_H4.1_A4.1_[T5C]_[A6C]_[T7G]_F4.1_[T8C]_[A9G]_T4.1]	1120
UCUCUUUGUACCCGUUCUCUU (ssRNA) [Ic_S1_P4E.1_K4.1_C4.1_H4.1_A4.1_[T5C]_[A6C]_[T7C]_F4.1_[T8G]_[A9T]_T4.1]	842
UCUCUUUUUAUAAAUCUCUU (ssRNA) [Ib_S1_P3E.1_K3.1_C3.1_H3.1_[G2T]_A3.1_F3.1_[T7A]_T3.1]	> 2300
UCUCUUUGUACGCCCUCUCUU (ssRNA) [Ic_S1_P4E.1_K4.1_C4.1_H4.1_A4.1_[T5C]_[A6G]_[T7C]_F4.1_[T8C]_[A9C]_T4.1]	879

Binder	Kd [nM]
UCUCUUUGUACCCGGUCUCUU (ssRNA) [Ic_S1_P4E.1_K4.1_C4.1_H4.1_A4.1_[T5C]_[A6C]_[T7C]_F4.1_[T8G]_[A9G]_T4.1]	> 2300
UCUCUUUGUACCGUGUCUCUU (ssRNA) [Ic_S1_P4E.1_K4.1_C4.1_H4.1_A4.1_[T5C]_[A6C]_[T7G]_F4.1_[A9G]_T4.1]	515
UCUCUUUGUACCCCCUCUCUU (ssRNA) [Ic_S1_P4E.1_K4.1_C4.1_H4.1_A4.1_[T5C]_[A6C]_[T7C]_F4.1_[T8C]_[A9C]_T4.1]	1090
UCUCUUUGUACCGUAUCUCUU (ssRNA) [Ic_S1_P4E.1_K4.1_C4.1_H4.1_A4.1_[T5C]_[A6C]_[T7G]_F4.1_T4.1]	23.4
UCUCUUUGUACCGUUUCUCUU (ssRNA) [Ic_S1_P4E.1_K4.1_C4.1_H4.1_A4.1_[T5C]_[A6C]_[T7G]_F4.1_[A9T]_T4.1]	142
UCUCUUUAUAUACAUCUCUU (ssRNA) [Ib_S1_P3E.1_K3.1_C3.1_H3.1_[G2A]_A3.1_F3.1_[T7C]_T3.1]	> 2300
UCUCUUUGUACCCAAUCUCUU (ssRNA) [Ic_S1_P4E.1_K4.1_C4.1_H4.1_A4.1_[T5C]_[A6C]_[T7C]_F4.1_[T8A]_T4.1]	833
UCUCUUUGUACGUUUUCUCUU (ssRNA) [Ic_S1_P4E.1_K4.1_C4.1_H4.1_A4.1_[T5C]_[A6G]_F4.1_[A9T]_T4.1]	37.8
UCUCUUUGUACGUCCUCUCUU (ssRNA) [Ic_S1_P4E.1_K4.1_C4.1_H4.1_A4.1_[T5C]_[A6G]_F4.1_[T8C]_[A9C]_T4.1]	482
UCUCUUUGUACGUGUUCUCUU (ssRNA) [Ic_S1_P4E.1_K4.1_C4.1_H4.1_A4.1_[T5C]_[A6G]_F4.1_[T8G]_[A9T]_T4.1]	110
UCUCUUUGUACCAGCUCUCUU (ssRNA) [Ic_S1_P4E.1_K4.1_C4.1_H4.1_A4.1_[T5C]_[A6C]_[T7A]_F4.1_[T8G]_[A9C]_T4.1]	913
UCUCUUUGUACCGCCUCUCUU (ssRNA) [Ic_S1_P4E.1_K4.1_C4.1_H4.1_A4.1_[T5C]_[A6C]_[T7G]_F4.1_[T8C]_[A9C]_T4.1]	1630
UCUCUUUGUACCGAUUCUCUU (ssRNA) [Ic_S1_P4E.1_K4.1_C4.1_H4.1_A4.1_[T5C]_[A6C]_[T7G]_F4.1_[T8A]_[A9T]_T4.1]	519
UCUCUUUGUACGAUAUCUCUU (ssRNA) [Ic_S1_P4E.1_K4.1_C4.1_H4.1_A4.1_[T5C]_[A6G]_[T7A]_F4.1_T4.1]	2.75
UCUCUUUGUACGCAUUCUCUU (ssRNA) [Ic_S1_P4E.1_K4.1_C4.1_H4.1_A4.1_[T5C]_[A6G]_[T7C]_F4.1_[T8A]_[A9T]_T4.1]	425
UCUCUUUGUACCCGCUCUCUU (ssRNA) [Ic_S1_P4E.1_K4.1_C4.1_H4.1_A4.1_[T5C]_[A6C]_[T7C]_F4.1_[T8G]_[A9C]_T4.1]	1420
UCUCUUUCUAUACAUCUCUU (ssRNA) [Ib_S1_P3E.1_K3.1_C3.1_H3.1_[G2C]_A3.1_F3.1_[T7C]_T3.1]	> 2300
UCUCUUUGUACCGUCUCUCUU (ssRNA) [Ic_S1_P4E.1_K4.1_C4.1_H4.1_A4.1_[T5C]_[A6C]_[T7G]_F4.1_[A9C]_T4.1]	1140
UCUCUUUGUACGUUGUCUCUU (ssRNA) [Ic_S1_P4E.1_K4.1_C4.1_H4.1_A4.1_[T5C]_[A6G]_F4.1_[A9G]_T4.1]	40.5
UCUCUUUGUACCCUAUCUCUU (ssRNA) [Ic_S1_P4E.1_K4.1_C4.1_H4.1_A4.1_[T5C]_[A6C]_[T7C]_F4.1_T4.1]	7.5

Binder	Kd [nM]
UCUCUUUGUACGCAAUCUCUU (ssRNA) [Ic_S1_P4E.1_K4.1_C4.1_H4.1_A4.1_[T5C]_[A6G]_[T7C]_F4.1_[T8A]_T4.1]	139
UCUCUUUGUACCCUUUCUCUU (ssRNA) [Ic_S1_P4E.1_K4.1_C4.1_H4.1_A4.1_[T5C]_[A6C]_[T7C]_F4.1_[A9T]_T4.1]	26.8
UCUCUUUGUACGUGAUCUCUU (ssRNA) [Ic_S1_P4E.1_K4.1_C4.1_H4.1_A4.1_[T5C]_[A6G]_F4.1_[T8G]_T4.1]	629
UCUCUUUGUACGUGCUCUCUU (ssRNA) [Ic_S1_P4E.1_K4.1_C4.1_H4.1_A4.1_[T5C]_[A6G]_F4.1_[T8G]_[A9C]_T4.1]	466
UCUCUUUGUACCCCGUCUCUU (ssRNA) [Ic_S1_P4E.1_K4.1_C4.1_H4.1_A4.1_[T5C]_[A6C]_[T7C]_F4.1_[T8C]_[A9G]_T4.1]	> 2300
UCUCUUUGUACCAGGUCUCUU (ssRNA) [Ic_S1_P4E.1_K4.1_C4.1_H4.1_A4.1_[T5C]_[A6C]_[T7A]_F4.1_[T8G]_[A9G]_T4.1]	1790
UCUCUUUGUGUACAUCUCUU (ssRNA) [Ib_S1_P3E.1_K3.1_C3.1_H3.1_[A4G]_A3.1_F3.1_[T7C]_T3.1]	38.9
UCUCUUUGUACGCACUCUCUU (ssRNA) [Ic_S1_P4E.1_K4.1_C4.1_H4.1_A4.1_[T5C]_[A6G]_[T7C]_F4.1_[T8A]_[A9C]_T4.1]	669
UCUCUUUGUACGCAGUCUCUU (ssRNA) [Ic_S1_P4E.1_K4.1_C4.1_H4.1_A4.1_[T5C]_[A6G]_[T7C]_F4.1_[T8A]_[A9G]_T4.1]	1140
UCUCUUUGUACGCCAUCUCUU (ssRNA) [Ic_S1_P4E.1_K4.1_C4.1_H4.1_A4.1_[T5C]_[A6G]_[T7C]_F4.1_[T8C]_T4.1]	29.5
UCUCUUUGUACGAUUUCUCUU (ssRNA) [Ic_S1_P4E.1_K4.1_C4.1_H4.1_A4.1_[T5C]_[A6G]_[T7A]_F4.1_[A9T]_T4.1]	22.7
UCUCUUUGUACCACGUCUCUU (ssRNA) [Ic_S1_P4E.1_K4.1_C4.1_H4.1_A4.1_[T5C]_[A6C]_[T7A]_F4.1_[T8C]_[A9G]_T4.1]	652
UCUCUUUGUACCCAGUCUCUU (ssRNA) [Ic_S1_P4E.1_K4.1_C4.1_H4.1_A4.1_[T5C]_[A6C]_[T7C]_F4.1_[T8A]_[A9G]_T4.1]	1230
UCUCUUUGCAUACAUCUCUU (ssRNA) [Ib_S1_P3E.1_K3.1_C3.1_H3.1_[T3C]_A3.1_F3.1_[T7C]_T3.1]	> 2300
UCUCUUUGUACCCUGUCUCUU (ssRNA) [Ic_S1_P4E.1_K4.1_C4.1_H4.1_A4.1_[T5C]_[A6C]_[T7C]_F4.1_[A9G]_T4.1]	32.7
UCUCUUUGUACGUAGUCUCUU (ssRNA) [Ic_S1_P4E.1_K4.1_C4.1_H4.1_A4.1_[T5C]_[A6G]_F4.1_[T8A]_[A9G]_T4.1]	93.5
UCUCUUUGUACCCAUUCUCUU (ssRNA) [Ic_S1_P4E.1_K4.1_C4.1_H4.1_A4.1_[T5C]_[A6C]_[T7C]_F4.1_[T8A]_[A9T]_T4.1]	517
UCUCUUUGUACGGUAUCUCUU (ssRNA) [Ic_S1_P4E.1_K4.1_C4.1_H4.1_A4.1_[T5C]_[A6G]_[T7G]_F4.1_T4.1]	13.4
UCUCUUUGUACGUAUUCUCUU (ssRNA) [Ic_S1_P4E.1_K4.1_C4.1_H4.1_A4.1_[T5C]_[A6G]_F4.1_[T8A]_[A9T]_T4.1]	96.3
